Source: patent US20120316071A1 (published 2012)
Substitutions are numbered along the chain they refer to. Blank lines part the entries; values can stand above or below the binder they belong to.

What was measured:
[1] = target: T1, rHuman Notch-1/Fc Chimera, CF (R&D Systems Cat#3647-TK) (human, UniProt P46531 19-526); assay: MSD multispot ECL, antigen spotted on plate; Fab 0.1275 uM; blank spot 530
T1 construct: Bought recombinant protein; Fc part of the bought chimera not given

[2] = target: T2, rHuman P-Cadherin/Fc Chimera, CF (R&D Systems Cat#861-PC) (human, UniProt P22223 108-654); assay: as above
T2 construct: Bought recombinant protein; Fc part of the bought chimera not given

[3] = target: T3, rHuman EGF R/Fc Chimera, CF (R&D Systems Cat#344-ER) (human, UniProt P00533 25-645); assay: as above
T3 construct: Bought recombinant protein; also called epidermal growth factor receptor; Fc part of the bought chimera not given

[4] = target: T4, rHuman CD44/Fc Chimera, CF (R&D Systems Cat#3660-CD) (human, UniProt P16070 21-220); assay: as above
T4 construct: Bought recombinant protein; Fc part of the bought chimera not given

[5] = target: T5, rHuman HGF R/c-MET/Fc Chimera, CF (R&D Systems Cat#358-MT/CF) (human, UniProt P08581 25-932); assay: as above
T5 construct: Bought recombinant protein; also called HGF R/Fc; hepatocyte growth factor receptor; Fc part of the bought chimera not given

[6] = target: T6, rHuman IGF-1 sR, CF (R&D Systems Cat#391-GR) (human, UniProt P08069 31-932); assay: as above
T6 construct: Bought recombinant soluble receptor; also called insulin-like growth factor-1 soluble receptor

[7] = target: T7, Recombinant Human DLL4 (R&D Systems Cat#1506-D4/CF) (human, UniProt Q9NR61 27-524); assay: MSD multispot ECL, antigen spotted, Fab 2.3 nM; blank spot 234
T7 construct: Bought recombinant protein; also called rHuman DLL4; delta-like protein 4

[8] = target: T8, rHuman Erythropoietin R/Fc Chimera, CF (R&D Systems Cat#963-ER) (human, UniProt P19235 25-250); assay: as above
T8 construct: Bought reagent; also called EPO R/Fc; Epo R
T8 sequence (looked up): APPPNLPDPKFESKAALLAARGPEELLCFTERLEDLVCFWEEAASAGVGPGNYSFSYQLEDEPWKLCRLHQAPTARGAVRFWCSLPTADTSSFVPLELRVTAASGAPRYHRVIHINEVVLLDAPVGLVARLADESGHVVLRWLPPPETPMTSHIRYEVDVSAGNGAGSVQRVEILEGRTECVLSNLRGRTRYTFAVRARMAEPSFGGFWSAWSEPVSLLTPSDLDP

[9] = target: T9, rHuman Notch-1/Fc Chimera, CF (R&D Systems Cat#3647-TK) (human, UniProt P46531 19-526); assay: MSD multispot ECL, antigen spotted, Fab 37.2 nM; blank spot 199
T9 construct: Bought reagent

[10] = target: T7, Recombinant Human DLL4 (R&D Systems …); assay: as above
[11] = target: T10, rHuman EGF R/Fc Chimera, CF (R&D Systems Cat#344-ER) (human, UniProt P00533 25-645); assay: as above
T10 construct: Bought reagent; also called epidermal growth factor receptor

[12] = target: T11, rHuman HGF R/c-MET/Fc Chimera, CF (R&D Systems Cat#358-MT/CF) (human, UniProt P08581 25-932); assay: as above
T11 construct: Bought reagent; also called HGF R/Fc; hepatocyte growth factor receptor

[13] = target: T12, rHuman CD44/Fc Chimera, CF (R&D Systems Cat#3660-CD) (human, UniProt P16070 21-220); assay: as above
T12 construct: Bought reagent

[14] = target: T13, rHuman IGF-1 sR, (IGF-1 sR), CF (R&D Systems Cat#391-GR) (human, UniProt P08069 31-932); assay: as above
T13 construct: Bought soluble receptor; also called insulin-like growth factor-1 soluble receptor

[15] = target: T14, rHuman ErbB2/Fc Chimera, CF (R&D Systems Cat#1129-ER) (human, UniProt P04626 23-652); assay: as above
T14 construct: Bought reagent; also called human epidermal growth factor 2 receptor

[16] = target: T8, rHuman Erythropoietin R/Fc Chimera, CF …; assay: as above
[17] = target: T15, rHuman IGF-1 sR, CF (R&D Systems Cat#391-GR) (human, UniProt P08069 31-932); assay: Multispot ECL (MSD), antigen spotted on plate, Fab 31.3 nM; blank spot 250
T15 construct: Bought recombinant soluble receptor; also called insulin-like growth factor-1 soluble receptor

[18] = target: T16, rHuman Erythropoietin R/Fc Chimera, CF (R&D Systems Cat#963-ER) (human, UniProt P19235 25-250); assay: as above
T16 construct: Bought recombinant protein; also called EPO R/Fc; Epo R; Fc part of the bought chimera not given
T16 sequence (looked up): T8 sequence (looked up)

[19] = target: T17, Recombinant Human DLL4 (R&D Systems Cat#1506-D4/CF) (human, UniProt Q9NR61 27-524); assay: as above
T17 construct: Bought recombinant protein; also called rHuman DLL4; delta-like protein 4

[20] = target: T18, rHuman Notch-1/Fc Chimera, CF (R&D Systems Cat#3647-TK) (human, UniProt P46531 19-526); assay: as above
T18 construct: Bought recombinant protein; Fc part of the bought chimera not given

ECL signal [1]: 1500 | ECL signal [2]: 957 | ECL signal [3]: 1060 | ECL signal [4]: 926 | ECL signal [5]: 853 | ECL signal [6]: 1040
B1: Fab VH4-34_IGHD7-27*01_IGHJ4*01 & L5_IGKJ1*01 (Fab, V domains shown)
VH: QVQLQQWGAGLLKPSETLSLTCAVYGGSFSGYYWSWIRQPPGKGLEWIGEINHSGSTNYNPSLKSRVTISVDTSKNQFSLKLSSVTAADTAVYYCARANWGDYFDYWGQGTLVTVSS
VL: DIQMTQSPSSVSASVGDRVTITCRASQGISSWLAWYQQKPGKAPKLLIYAASSLQSGVPSRFSGSGSGTDFTLTISSLQPEDFATYYCQQANSFPPWTFGQGTKVEIKR
notes: Germline library Fab expressed in E. coli; VH was cloned into Plasmid A, which adds CH1 with His6 and Flag tags

ECL signal [7]: 3060 ECL signal | ECL signal [8]: 429 ECL signal | ECL signal [9]: 402 ECL signal | ECL signal [10]: 16700 ECL signal | ECL signal [11]: 228 ECL signal | ECL signal [12]: 207 ECL signal | ECL signal [13]: 356 ECL signal | ECL signal [14]: 295 ECL signal | ECL signal [15]: 384 ECL signal | ECL signal [16]: 315 ECL signal
B2: Fab VH1-46_IGHD6-6*01_IGHJ1*01 & L6_IGKJ1*01 (Fab, V domains shown)
VH: QVQLVQSGAEVKKPGASVKVSCKASGYTFTSYYMHWVRQAPGQGLEWMGIINPSGGSTSYAQKFQGRVTMTRDTSTSTVYMELSSLRSEDTAVYYCAREEYSSSSAEYFQHWGQGTLVTVSS
VL: not shown
notes: Only variable domains are tied to the molecule; Tested as a Fab made in E. coli: heavy chain from Plasmid A (CH1 constant region, His6 and Flag tags), kappa light chain from Plasmid C (kappa CL); also called parent Hit Fab against DLL4; VH1-46_IGHD6-6*01_IGHJ1*01 & L6_IGKJ1*01 (parental)

ECL signal [17]: 385 | ECL signal [18]: 7880 | ECL signal [19]: 528 | ECL signal [20]: 563
B3: Fab VH1-46_IGHD6-13*01_IGHJ4*01 & B3_IGKJ1*01 (Fab, V domains shown)
VH: B2 VH with E100G, S105W, A106Y, E107D, Q110D, H111Y
VL: not shown
notes: Germline Fab made in E. coli; VH was cloned into Plasmid A (CH1, His6 and Flag tags) and the kappa VL into Plasmid C (kappa CL)
